The term stoichiometry N denotes the number of molecules, sites or subunits per partner or assembly.

Assay [1] addresses AimC_(BMbtp14), purified (phage BMBtp14 (B. cereus group phage)). Put plainly: SEC-MALS. On the technique in general: SEC sorts molecules by how far they enter the pores of the column.
For assay [2], the target named is AimC_(ϕ106), purified (phage ϕ106 (of Bacillus inaquosorum strain KCTC 13429)). Kind of assay: SEC-MALS.

Where “and” joins values, the source holds several entries; their conditions need not be identical. Equal entries are not always repeated.

On to “AimC_(BMbtp14), purified (natural protein)”, for which, in assay [1], the stoichiometry N was 2 and 4. In assay [2], AimC_(ϕ106), purified (natural protein) gave a stoichiometry N of 2.

Source of the values: article doi:10.1101/2025.11.23.689978.
